Data from PMC4601788.

Key:
[1] = molecular target: Flag-LiPABP (Leishmania infantum) (UniProt A4IBV3); experiment: pull-down
[2] = molecular target: rLiPABP (poly(A)-binding protein) (Leishmania infantum) (UniProt A4IBV3); experiment: ELONA
[3] = molecular target: Myc-LiPABP (Leishmania infantum) (UniProt A4IBV3); experiment: competition
[4] = molecular target: endogenous LiPABP (eLiPABP) (Leishmania infantum) (UniProt A4IBV3); experiment: competition

Sequence: GCGGATGAAGACTGGTGTCCAGAGTGAACACAAAGAAATTGAAATACGTAAGCTCCGGGCCCTAAATACGAGCAAC [ApPABP#7]
- binding signal (% of total Flag-LiPABP recovered) [1]: > 75
- Kd [2]: 6 nM

Sequence: GCGGATGAAGACTGGTGTGGACAGTTCTACGAGGATTACGCTGTTACTAAGTGTGGGGGCCCTAAATACGAGCAAC [ApPABP#3]
- binding signal (% of total Flag-LiPABP recovered) [1]: > 75
- Kd [2]: 5.4 nM

Sequence: GTTGCTCGTATTTAGGGCGGCCCCCTCCTCCCTCCCCCACCCGACACTATTCCCCCCCACACCAGTCTTCATCCGC [ApPABP#11]
- binding signal (% of total Flag-LiPABP recovered) [1]: < 50
- Kd [2]: 10.8 nM
- binding signal (% reduction of poly(A) binding) [3]: 80
- binding signal (% reduction of poly(A) binding) [4]: 30
